T1: FcγRIIb extracellular domain with C-terminal His tag (human, UniProt P31994 43-217)
T1 construct: extracellular domain; Expressed in FreeStyle293 cells; used as analyte in Biacore; also called FcgRIIb; 2b; not shown: C-terminal His tag
T1 sequence (looked up): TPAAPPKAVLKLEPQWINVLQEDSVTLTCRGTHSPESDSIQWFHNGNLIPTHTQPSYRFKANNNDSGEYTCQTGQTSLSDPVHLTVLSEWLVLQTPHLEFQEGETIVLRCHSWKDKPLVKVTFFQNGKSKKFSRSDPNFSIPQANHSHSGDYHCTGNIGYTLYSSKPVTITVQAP

B1: GpH7-A5/GpH7-B3 variant S267_07I/GpL16-k0 (He Ab) (antibody, human IgG1, kappa)
heavy 1: not shown
heavy 2: not shown
light: DIVMTQSPLSLPVTPGEPASISCQASESLVHSNRNTYLHWYLQKPGQSPQLLIYKVSNRFSGVPDRFSGSGSGTDFTLKISRVEAEDVGVYYCSQNTHVPPTFGQGTKVEIERTVAAPSVFIFPPSDEQLKSGTASVVCLLNNFYPREAKVQWKVDNALQSGNSQESVTEQDSKDSTYSLSSTLTLSKADYEKHKVYACEVTHQGLSSPVTKSFNRGEC
notes: Substitution in one H chain only; position in EU numbering; also called S267I heterodimerized antibody
B2: GpH7-A5/GpH7-B3 variant P271_01G/GpL16-k0 (He Ab) (antibody, human IgG1, kappa)
heavy 1: not shown
heavy 2: not shown
light: B1 light
notes: Substitution in one H chain only; position in EU numbering; also called P271G heterodimerized antibody
B3: GpH7-A5/GpH7-B3 variant S267_14T/GpL16-k0 (He Ab) (antibody, human IgG1, kappa)
heavy 1: not shown
heavy 2: not shown
light: B1 light
notes: Substitution in one H chain only; position in EU numbering; also called S267T heterodimerized antibody
B4: GpH7-A5/GpH7-B3 variant S239_07I/GpL16-k0 (He Ab) (antibody, human IgG1, kappa)
heavy 1: not shown
heavy 2: not shown
light: B1 light
notes: Substitution in one H chain only; position in EU numbering; also called S239I heterodimerized antibody
B5: GpH7-A5/GpH7-B3 variant S239_18N/GpL16-k0 (He Ab) (antibody, human IgG1, kappa)
heavy 1: not shown
heavy 2: not shown
light: B1 light
notes: Substitution in one H chain only; position in EU numbering; also called S239N heterodimerized antibody
B6: GpH7-A5/GpH7-B3 variant S267_02A/GpL16-k0 (He Ab) (antibody, human IgG1, kappa)
heavy 1: not shown
heavy 2: not shown
light: B1 light
notes: Substitution in one H chain only; position in EU numbering; also called S267A heterodimerized antibody
B7: GpH7-A5/GpH7-B3 variant P331_04F/GpL16-k0 (He Ab) (antibody, human IgG1, kappa)
heavy 1: not shown
heavy 2: not shown
light: B1 light
notes: Substitution in one H chain only; position in EU numbering; also called P331F heterodimerized antibody
B8: GpH7-A5/GpH7-B3 variant T335_04F/GpL16-k0 (He Ab) (antibody, human IgG1, kappa)
heavy 1: not shown
heavy 2: not shown
light: B1 light
notes: Substitution in one H chain only; position in EU numbering; also called T335F heterodimerized antibody
B9: GpH7-A5/GpH7-B3 variant P271_08L/GpL16-k0 (He Ab) (antibody, human IgG1, kappa)
heavy 1: not shown
heavy 2: not shown
light: B1 light
notes: Substitution in one H chain only; position in EU numbering; also called P271L heterodimerized antibody
B10: GpH7-A5/GpH7-B3 variant T335_09D/GpL16-k0 (He Ab) (antibody, human IgG1, kappa)
heavy 1: not shown
heavy 2: not shown
light: B1 light
notes: Substitution in one H chain only; position in EU numbering; also called T335D heterodimerized antibody
B11: GpH7-A5/GpH7-B3 variant S337_14T/GpL16-k0 (He Ab) (antibody, human IgG1, kappa)
heavy 1: not shown
heavy 2: not shown
light: B1 light
notes: Substitution in one H chain only; position in EU numbering; also called S337T heterodimerized antibody
B12: GpH7-A5/GpH7-B3 variant S267_08L/GpL16-k0 (He Ab) (antibody, human IgG1, kappa)
heavy 1: not shown
heavy 2: not shown
light: B1 light
notes: Substitution in one H chain only; position in EU numbering; also called S267L heterodimerized antibody
B13: GpH7-A5/GpH7-B3 variant S267_03V/GpL16-k0 (He Ab) (antibody, human IgG1, kappa)
heavy 1: not shown
heavy 2: not shown
light: B1 light
notes: Substitution in one H chain only; position in EU numbering; also called S267V heterodimerized antibody
B14: GpH7-A5/GpH7-B3 variant S267_10E/GpL16-k0 (He Ab) (antibody, human IgG1, kappa)
heavy 1: not shown
heavy 2: not shown
light: B1 light
notes: Substitution in one H chain only; position in EU numbering; also called S267E heterodimerized antibody
B15: GpH7-A5/GpH7-B3 variant S337_10E/GpL16-k0 (He Ab) (antibody, human IgG1, kappa)
heavy 1: not shown
heavy 2: not shown
light: B1 light
notes: Substitution in one H chain only; position in EU numbering; also called S337E heterodimerized antibody
B16: GpH7-A5/GpH7-B3 variant T335_08L/GpL16-k0 (He Ab) (antibody, human IgG1, kappa)
heavy 1: not shown
heavy 2: not shown
light: B1 light
notes: Substitution in one H chain only; position in EU numbering; also called T335L heterodimerized antibody
B17: GpH7-A5/GpH7-B3 variant S239_01G/GpL16-k0 (He Ab) (antibody, human IgG1, kappa)
heavy 1: not shown
heavy 2: not shown
light: B1 light
notes: Substitution in one H chain only; position in EU numbering; also called S239G heterodimerized antibody
B18: GpH7-A5/GpH7-B3 variant S239_09D/GpL16-k0 (He Ab) (antibody, human IgG1, kappa)
heavy 1: not shown
heavy 2: not shown
light: B1 light
notes: Substitution in one H chain only; position in EU numbering; also called S239D heterodimerized antibody
B19: GpH7-A5/GpH7-B3 variant S337_09D/GpL16-k0 (He Ab) (antibody, human IgG1, kappa)
heavy 1: not shown
heavy 2: not shown
light: B1 light
notes: Substitution in one H chain only; position in EU numbering; also called S337D heterodimerized antibody
B20: GpH7-A5/GpH7-B3 variant S239_08L/GpL16-k0 (He Ab) (antibody, human IgG1, kappa)
heavy 1: not shown
heavy 2: not shown
light: B1 light
notes: Substitution in one H chain only; position in EU numbering; also called S239L heterodimerized antibody

These binders were tested against T1, FcγRIIb extracellular domain with … (assay: SPR (Biacore), antibody captured on antigen-peptide chip, FcgRIIb as analyte; binding relative to GpH7-A5/GpH7-B3/GpL16-k0 (HeCon Ab) = 100).

He/Con_2b	Binder
192 % of control	B1
193 % of control	B2
104 % of control	B3
107 % of control	B4
119 % of control	B5
243 % of control	B6
110 % of control	B7
103 % of control	B8
103 % of control	B9
108 % of control	B10
105 % of control	B11
109 % of control	B12
192 % of control	B13
379 % of control	B14
107 % of control	B15
104 % of control	B16
144 % of control	B17
206 % of control	B18
114 % of control	B19
140 % of control	B20
